We go through 17 variants from IntAct's records for PubMed 24980795.

B1: Serine/threonine-protein kinase PLK4 (Mus musculus), Q64702-1 (parent)
chain: MAACIGERIEDFKVGNLLGKGSFAGVYRAESIHTGLEVAIKMIDKKAMYKAGMVQRVQNEVKIHCQLKHPSVLELYNYFEDNNYVYLVLEMCHNGEMNRYLKNRMKPFSEREARHFMHQIITGMLYLHSHGILHRDLTLSNILLTRNMNIKIADFGLATQLNMPHEKHYTLCGTPNYISPEIATRSAHGLESDIWSLGCMFYTLLIGRPPFDTDTVKNTLNKVVLADYEMPAFLSREAQDLIHQLLRRNPADRLSLSSVLDHPFMSRNPSPKSKDVGTVEDSMDSGHATLSTTITASSGTSLSGSLLDRRLLVGQPLPNKITVFQKNKNSSDFSSGDGSNFCTQWGNPEQEANSRGRGRVIEDAEERPHSRYLRRAHSSDRASPSNQSRAKTYSVERCHSVEMLSKPRRSLDENQHSSNHHCLGKTPFPFADQTPQMEMVQQWFGNLQMNAHLGETNEHHTVSPNRDFQDYPDLQDTLRNAWTDTRASKNADTSANVHAVKQLSAMKYMSAHHHKPEVMPQEPGLHPHSEQSKNRSMESTLGYQKPTLRSITSPLIAHRLKPIRQKTKKAVVSILDSEEVCVELLRECASEGYVKEVLQISSDGTMITVYYPNDGRGFPLADRPPLPTDNISRYSFDNLPEKYWRKYQYASRFIQLVRSKTPKITYFTRYAKCILMENSPGADFEVWFYDGAKIHKTENLIHIIEKTGISYNLKNENEVTSLKEEVKVYMDHANEGHRICLSLESVISEEEKRSRGSSFFPIIVGRKPGNTSSPKALSAPPVDPSCCKGEQASASRLSVNSAAFPTQSPGLSPSTVTVEGLGHTATATGTGVSSSLPKSAQLLKSVFVKNVGWATQLTSGAVWVQFNDGSQLVVQAGVSSISYTSPDGQTTRYGENEKLPEYIKQKLQCLSSILLMFSNPTPNFQ
B2: Spindle-defective protein 2 (Caenorhabditis elegans), P91870 (parent)
chain: MEDDAPMNLCNEQFEEIEDSPIDDNDNESFYNADGDVELEEEEVHETPKNFKNGGRFKTNMTNPKVNDLTTIEEKNEDLRSAASSRSASRPASVMSDKSFSSQFEFQSGGENAIEEYTNQVFADENKADLLFPETSKFMNGASPPKDKHHSWEPSIHHYDKQPPPDIQTNSPVFGNLNHRKNKLIPQARAKPGANDNEIVERDNDENVPTTSDKSAFITSPMNSTNHDEKTSTPKRPTNRKIGQYQGPNFDLSSIYVGSPQHQNTSISTGQQMPTSSYSHAHSETMMTNQTINESMVRRVLNGNNKNQDLFAALEEARKRRAAQPSKPDFRINTTRTRVPIKPTSARHSGNVVSSTSNDNTTAASSKDLTTSRKAMETFRQNASMADATNSNTASMTSILSTISTARTDISRSSRNHGGGFSNTSVSTVIPANNGNVSLSHGRDGRDSVSSVRTMSRASSTSTVYAGSTFSGVSKPLRIHAKRVAFGCVAVGETLRVEVEVENISDRQCLVRASTDSTTPVYQILDNKLTMVDPKKSIKFQVSFSPSSVGRYQVIMSIEVPAQNFIHKIPMWGNGGIAKFVPTSPDLQQTINQSEYAMCTSCAKRISFKISNSAGTRDGFAMIKVFDSAMRQLPDGCVAFFPAPGFIVKKKSDKRVDIRIDSSYIDLHDENNFRTSSSLSTASTTSSFQRRILPGAKFFVHVVWGEETMRTRLRLLEVRTGQHQLIDGHDFTSFQFSDEEVLRAVPVGFPAIKPEDRDLFAASYRSFFINFFTSTTEFRAATSRKKKEICSNDDSTLLETTAFRNQTFVNDVTIVPNTRFSNRK
partner: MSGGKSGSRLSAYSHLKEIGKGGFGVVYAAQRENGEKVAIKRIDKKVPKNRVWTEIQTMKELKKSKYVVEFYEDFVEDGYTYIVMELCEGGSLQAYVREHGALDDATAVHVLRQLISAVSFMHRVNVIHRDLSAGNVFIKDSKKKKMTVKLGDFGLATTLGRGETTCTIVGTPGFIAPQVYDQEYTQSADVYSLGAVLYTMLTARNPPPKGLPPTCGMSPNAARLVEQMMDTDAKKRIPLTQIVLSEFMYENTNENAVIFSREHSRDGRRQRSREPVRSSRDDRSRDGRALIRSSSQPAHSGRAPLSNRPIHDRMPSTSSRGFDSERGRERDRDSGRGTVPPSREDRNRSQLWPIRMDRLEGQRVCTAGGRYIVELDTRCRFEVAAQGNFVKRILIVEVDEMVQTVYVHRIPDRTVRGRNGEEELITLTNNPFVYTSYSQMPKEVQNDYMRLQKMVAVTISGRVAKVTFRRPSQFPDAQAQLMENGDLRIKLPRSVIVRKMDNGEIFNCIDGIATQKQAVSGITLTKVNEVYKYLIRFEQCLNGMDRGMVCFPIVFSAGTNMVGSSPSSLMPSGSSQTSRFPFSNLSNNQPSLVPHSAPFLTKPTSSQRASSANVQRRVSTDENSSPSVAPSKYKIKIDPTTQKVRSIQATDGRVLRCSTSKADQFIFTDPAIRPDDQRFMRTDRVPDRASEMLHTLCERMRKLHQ
B3: Probable serine/threonine-protein kinase zyg-1 (Caenorhabditis elegans), Q9GT24 (parent)
chain: B2 partner
partner: B2 chain

In one test the parent is B1. Conditions: with ce152_mouse Cep152, A2AUM9.
ce152_mouse Cep152, A2AUM9, sequence (A2AUM9 whole entry): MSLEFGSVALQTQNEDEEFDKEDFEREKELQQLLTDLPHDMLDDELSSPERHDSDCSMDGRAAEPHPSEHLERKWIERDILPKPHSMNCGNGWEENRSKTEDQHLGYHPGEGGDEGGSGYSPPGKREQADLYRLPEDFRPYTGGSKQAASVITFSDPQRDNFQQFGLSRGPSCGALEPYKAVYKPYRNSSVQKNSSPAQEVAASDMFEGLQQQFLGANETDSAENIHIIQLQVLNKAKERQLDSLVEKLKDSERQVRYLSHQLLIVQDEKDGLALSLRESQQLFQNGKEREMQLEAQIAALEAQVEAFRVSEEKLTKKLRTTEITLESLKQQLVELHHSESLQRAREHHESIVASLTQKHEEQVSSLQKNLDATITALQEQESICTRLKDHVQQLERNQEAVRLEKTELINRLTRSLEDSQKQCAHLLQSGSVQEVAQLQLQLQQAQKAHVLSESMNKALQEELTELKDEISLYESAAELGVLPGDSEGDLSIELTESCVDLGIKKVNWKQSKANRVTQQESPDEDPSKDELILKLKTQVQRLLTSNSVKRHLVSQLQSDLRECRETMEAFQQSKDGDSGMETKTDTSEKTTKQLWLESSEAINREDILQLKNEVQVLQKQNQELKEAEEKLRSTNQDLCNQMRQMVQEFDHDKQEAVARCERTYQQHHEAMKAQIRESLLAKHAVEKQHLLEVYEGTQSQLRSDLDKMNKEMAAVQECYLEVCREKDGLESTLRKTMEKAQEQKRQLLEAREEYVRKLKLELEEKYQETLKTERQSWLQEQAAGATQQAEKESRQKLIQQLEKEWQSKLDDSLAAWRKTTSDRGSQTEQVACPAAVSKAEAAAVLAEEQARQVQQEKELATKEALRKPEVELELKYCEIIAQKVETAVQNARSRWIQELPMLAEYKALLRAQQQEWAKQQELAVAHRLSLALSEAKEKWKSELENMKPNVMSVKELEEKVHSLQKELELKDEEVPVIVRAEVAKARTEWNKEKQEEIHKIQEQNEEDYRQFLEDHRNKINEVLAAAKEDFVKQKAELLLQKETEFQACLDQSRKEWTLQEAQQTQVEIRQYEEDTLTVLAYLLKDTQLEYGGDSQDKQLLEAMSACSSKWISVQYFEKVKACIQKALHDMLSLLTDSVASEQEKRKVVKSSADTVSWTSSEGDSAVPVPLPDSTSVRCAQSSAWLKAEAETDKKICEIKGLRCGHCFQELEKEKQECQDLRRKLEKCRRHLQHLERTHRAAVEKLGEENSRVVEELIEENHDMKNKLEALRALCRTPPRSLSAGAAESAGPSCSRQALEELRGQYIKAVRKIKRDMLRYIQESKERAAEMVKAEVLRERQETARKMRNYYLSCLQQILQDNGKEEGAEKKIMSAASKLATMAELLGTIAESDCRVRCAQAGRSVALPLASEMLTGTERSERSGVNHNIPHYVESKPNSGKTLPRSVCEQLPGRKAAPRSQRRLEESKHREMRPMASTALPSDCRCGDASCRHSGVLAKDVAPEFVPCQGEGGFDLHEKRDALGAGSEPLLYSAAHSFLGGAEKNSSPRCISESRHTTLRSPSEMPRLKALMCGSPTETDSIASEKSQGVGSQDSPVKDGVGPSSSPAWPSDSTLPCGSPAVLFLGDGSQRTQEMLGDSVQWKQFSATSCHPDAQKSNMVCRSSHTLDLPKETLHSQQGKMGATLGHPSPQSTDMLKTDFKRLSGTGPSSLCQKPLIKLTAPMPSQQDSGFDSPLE
Turning to K568E;K569E, the “effect of a mutation on the interaction” value is on record as “increasing interaction strength”.

Take K693E: the “effect of a mutation on the interaction” value is recorded as “decreasing interaction strength”.

For R766E;K767E, the “effect of a mutation on the interaction” value is recorded as “decreasing interaction strength”.

With K672E, the “effect of a mutation on the interaction” value is listed as “decreasing interaction strength”.

As to R652E, the “effect of a mutation on the interaction” value was “decreasing interaction strength”.

Consider K660E, for which the “effect of a mutation on the interaction” value is given as “decreasing interaction strength”.

A further test covers variants of B1. Conditions: with Cep192, E9Q4Y4.
Cep192, E9Q4Y4, sequence (E9Q4Y4 entry or part of it): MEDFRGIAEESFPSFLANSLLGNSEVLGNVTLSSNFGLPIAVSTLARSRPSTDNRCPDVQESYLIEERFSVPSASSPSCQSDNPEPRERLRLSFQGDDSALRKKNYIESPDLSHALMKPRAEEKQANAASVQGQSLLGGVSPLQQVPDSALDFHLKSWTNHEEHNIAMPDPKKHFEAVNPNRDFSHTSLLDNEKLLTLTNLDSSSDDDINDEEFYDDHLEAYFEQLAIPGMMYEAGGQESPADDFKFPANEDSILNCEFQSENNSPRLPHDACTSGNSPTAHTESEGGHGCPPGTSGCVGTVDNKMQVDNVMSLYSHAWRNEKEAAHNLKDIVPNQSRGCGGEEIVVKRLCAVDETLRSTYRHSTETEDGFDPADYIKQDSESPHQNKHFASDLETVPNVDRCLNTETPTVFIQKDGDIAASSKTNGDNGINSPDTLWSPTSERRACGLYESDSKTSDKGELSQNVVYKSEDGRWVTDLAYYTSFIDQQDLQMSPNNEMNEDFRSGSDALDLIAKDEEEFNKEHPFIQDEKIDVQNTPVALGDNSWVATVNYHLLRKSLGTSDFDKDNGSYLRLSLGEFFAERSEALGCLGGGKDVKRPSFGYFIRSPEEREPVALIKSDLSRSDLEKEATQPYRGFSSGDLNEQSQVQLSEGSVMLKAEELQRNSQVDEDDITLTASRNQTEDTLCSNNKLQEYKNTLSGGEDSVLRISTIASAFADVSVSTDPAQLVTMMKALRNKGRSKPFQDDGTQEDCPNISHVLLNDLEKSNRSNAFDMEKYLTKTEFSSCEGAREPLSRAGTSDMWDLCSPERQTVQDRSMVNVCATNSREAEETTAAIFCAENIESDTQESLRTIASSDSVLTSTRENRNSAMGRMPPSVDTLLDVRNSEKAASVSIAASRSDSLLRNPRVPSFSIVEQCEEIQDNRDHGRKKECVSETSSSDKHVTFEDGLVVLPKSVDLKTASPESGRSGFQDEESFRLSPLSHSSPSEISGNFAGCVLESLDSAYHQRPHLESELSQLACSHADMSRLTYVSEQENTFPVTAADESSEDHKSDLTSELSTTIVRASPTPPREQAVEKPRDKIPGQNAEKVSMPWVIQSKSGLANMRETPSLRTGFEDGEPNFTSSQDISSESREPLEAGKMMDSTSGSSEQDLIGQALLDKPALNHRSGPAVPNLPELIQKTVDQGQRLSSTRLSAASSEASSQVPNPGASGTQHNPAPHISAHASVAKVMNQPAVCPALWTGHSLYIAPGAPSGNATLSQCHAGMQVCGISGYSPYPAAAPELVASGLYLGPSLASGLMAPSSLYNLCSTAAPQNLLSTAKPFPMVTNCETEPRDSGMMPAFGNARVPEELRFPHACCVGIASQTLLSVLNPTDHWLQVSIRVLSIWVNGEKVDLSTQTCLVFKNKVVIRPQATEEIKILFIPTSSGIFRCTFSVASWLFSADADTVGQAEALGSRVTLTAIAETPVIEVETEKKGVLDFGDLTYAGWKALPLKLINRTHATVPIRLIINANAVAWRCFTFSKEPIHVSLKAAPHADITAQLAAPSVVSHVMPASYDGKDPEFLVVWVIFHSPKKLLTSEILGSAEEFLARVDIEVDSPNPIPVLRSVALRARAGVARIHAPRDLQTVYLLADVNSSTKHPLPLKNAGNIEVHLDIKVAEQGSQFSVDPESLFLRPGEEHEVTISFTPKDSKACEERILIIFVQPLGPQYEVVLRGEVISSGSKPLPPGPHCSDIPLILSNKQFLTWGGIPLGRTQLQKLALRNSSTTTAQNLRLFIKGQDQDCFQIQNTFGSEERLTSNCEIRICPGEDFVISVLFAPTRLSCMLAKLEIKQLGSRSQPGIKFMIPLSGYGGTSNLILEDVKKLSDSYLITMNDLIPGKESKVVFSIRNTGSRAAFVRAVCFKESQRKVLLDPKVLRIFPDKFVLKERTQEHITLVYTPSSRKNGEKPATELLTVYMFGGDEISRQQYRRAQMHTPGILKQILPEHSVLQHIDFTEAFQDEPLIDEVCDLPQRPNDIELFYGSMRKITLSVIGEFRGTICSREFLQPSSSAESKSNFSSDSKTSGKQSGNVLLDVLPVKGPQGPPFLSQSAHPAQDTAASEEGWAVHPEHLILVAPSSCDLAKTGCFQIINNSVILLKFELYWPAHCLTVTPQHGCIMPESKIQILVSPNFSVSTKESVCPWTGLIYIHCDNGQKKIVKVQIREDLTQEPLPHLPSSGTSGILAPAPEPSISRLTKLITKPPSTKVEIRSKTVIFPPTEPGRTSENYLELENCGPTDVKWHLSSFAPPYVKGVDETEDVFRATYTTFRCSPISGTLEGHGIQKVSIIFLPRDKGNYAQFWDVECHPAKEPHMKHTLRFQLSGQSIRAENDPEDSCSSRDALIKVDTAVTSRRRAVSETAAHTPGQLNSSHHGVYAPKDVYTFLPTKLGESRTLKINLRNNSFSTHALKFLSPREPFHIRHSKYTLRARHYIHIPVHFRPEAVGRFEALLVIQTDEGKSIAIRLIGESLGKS
Regarding K693E, the “effect of a mutation on the interaction” value is “decreasing interaction strength”.

In the case of R766E;K767E, the “effect of a mutation on the interaction” value is reported as “decreasing interaction strength”.

For the variant K672E, the “effect of a mutation on the interaction” value was “decreasing interaction strength”.

Turning to R564E;K566E, the “effect of a mutation on the interaction” value is “increasing interaction strength”.

As for K660E, the “effect of a mutation on the interaction” value is “increasing interaction strength”.

Variants of B2 are the subject of the next test. As to conditions: with zyg1_caeel zyg-1, Q9GT24.
Take E12K;E15K;E16K;E18K;D19K: the “effect of a mutation on the interaction” value is on record as “disrupting interaction strength”.

In the case of E38K;E40K;E41K;E42K;E43K, the “effect of a mutation on the interaction” value is given as “disrupting interaction strength”.

In another test the parent is B2. As to conditions: with zyg1_caeel zyg-1, Q9GT24. This is another data set of the same source.
With E38K;E40K;E41K;E42K;E43K, the “effect of a mutation on the interaction” value is recorded as “decreasing interaction strength”.

As to D26K;E28K;D34K;D36K, the “effect of a mutation on the interaction” value was “decreasing interaction strength”.

The variants in a further test derive from B3. As to conditions: with spd2_caeel spd-2, P91870.
R471E: the “effect of a mutation on the interaction” value was “decreasing interaction strength”.

Consider R463E, for which the “effect of a mutation on the interaction” value is “disrupting interaction strength”.

Take K500E: the “effect of a mutation on the interaction” value is “disrupting interaction strength”.

Turning to R470E, the “effect of a mutation on the interaction” value is “decreasing interaction strength”.

As to R470E;R471E, the “effect of a mutation on the interaction” value is “disrupting interaction strength”.

Regarding R489E;K491E, the “effect of a mutation on the interaction” value is listed as “disrupting interaction strength”.

With K454E, the “effect of a mutation on the interaction” value was “decreasing interaction strength”.
